Experimental data from PMC3713010, “Sox2 Transcriptionally Regulates Pqbp1, an Intellectual Disability-Microcephaly Causative Gene, in Neural Stem Progenitor Cells”.

Assays:
Test in all cases: EMSA; 10% glycerol, 20 mM HEPES pH 7.8, 45 mM KCl, 10 mM NaCl, 1 mM EDTA, 1 mM DTT, 0.2 ug/uL BSA, 0.1% NP-40, 50 ng poly-dIdC; 20 ng each GST protein; room temperature 30 min (heterodimers 4 C); 6% PAGE 0.25x TBE
Conditions in all cases: protein: recombinant; tags: GST (N-terminal, pGEX-6P-1); label: 32P-dCTP fill-in of the 5' (dG)5 overhangs of both strands (Methods; control probes are given with GGG)
[1] = biological target: Pax6 DNA-binding domain (BD-Pax6) (Mus musculus (B6), UniProt P63015 190-289)
Procedure, shortened: (§1)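 Candidate cis-element oligonucleotides were annealed, labelled with 32P-dCTP and tested against GST-tagged transcription factor DNA-binding domains made in E. coli BL21 and purified on glutathione-sepharose. For each binding reaction, 20 ng protein was combined with 40,000–50,000 cpm probe and 50 ng poly-dIdC in HEPES/KCl glycerol buffer containing BSA and detergent for 30 min at room temperature. Gels of 6% polyacrylamide in 0.25×TBE were run at 4°C, and band radioactivity was measured on a BAS4000 imager. The readout for DNA binding was the band signal in the expected shift region.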

[2] = biological target: T1, Brn2 DNA-binding domain (BD-Brn2) (Mus musculus (B6), UniProt P31360 336-435)
T1 sequence: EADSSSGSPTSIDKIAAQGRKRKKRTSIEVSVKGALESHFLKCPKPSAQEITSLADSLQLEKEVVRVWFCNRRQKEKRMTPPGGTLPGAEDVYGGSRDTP
Procedure, shortened: as §1

[3] = biological target: T2, Oct6 DNA-binding domain (BD-Oct6) (Mus musculus (B6), UniProt P21952 317-416)
T2 sequence: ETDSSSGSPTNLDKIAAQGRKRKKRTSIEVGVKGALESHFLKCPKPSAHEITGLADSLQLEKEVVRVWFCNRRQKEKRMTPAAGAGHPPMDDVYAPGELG
Procedure, shortened: as §1

Chain of Pax6 DNA-binding domain (BD-Pax6) (P63015 190-289): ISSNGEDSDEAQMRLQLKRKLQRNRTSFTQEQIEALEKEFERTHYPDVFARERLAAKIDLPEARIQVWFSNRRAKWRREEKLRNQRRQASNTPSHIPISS

B1: 28 (dsDNA)
DNA 1: GGGGGAAAAAAGATTCTAATCTTTTTTGTGGTGGTGGCCCCC
DNA 2: GGGGGCCACCACCACAAAAAAGATTAGAATCTTTTTTCCCCC
binding result [1]: no binding | binding result [2]: no binding | binding result [3]: no binding

B2: 29 (dsDNA)
DNA 1: GGGGGAAAAACTTTTTGTTATTTCATTTTTATTAGTGGCCCCC
DNA 2: GGGGGCCACTAATAAAAATGAAATAACAAAAAGTTTTTCCCCC
binding result [1]: no binding | binding result [2]: no binding | binding result [3]: binds

B3: 15 (dsDNA)
DNA 1: GGGGGAGATCTTTACAAATTTCTATATTAGAGTTTTTTGTCCCCC
DNA 2: GGGGGACAAAAAACTCTAATATAGAAATTTGTAAAGATCTCCCCC
binding result [1]: no binding | binding result [2]: no binding | binding result [3]: no binding

B4: 6 (dsDNA)
DNA 1: GGGGGAGGACTTAATTGTTCGCATTTCTGTATTCTGCCCCC
DNA 2: GGGGGCAGAATACAGAAATGCGAACAATTAAGTCCTCCCCC
binding result [1]: no binding | binding result [2]: binds | binding result [3]: binds

B5: 27 (dsDNA)
DNA 1: GGGGGCACACCTGTTTGTTTTCCACTTCACAGAGGAGGCATAGGAAACTCCCCC
DNA 2: GGGGGAGTTTCCTATGCCTCCTCTGTGAAGTGGAAAACAAACAGGTGTGCCCCC
binding result [1]: no binding | binding result [2]: no binding | binding result [3]: no binding

B6: 13 (dsDNA)
DNA 1: GGGGGTCTCCTGCTTTGTAGTCACAGAGTAGTCAAGAAGGGCTCCCCC
DNA 2: GGGGGAGCCCTTCTTGACTACTCTGTGACTACAAAGCAGGAGACCCCC
binding result [1]: no binding | binding result [2]: no binding | binding result [3]: no binding

B7: 14 (dsDNA)
DNA 1: GGGGGGTCAGGATTTTGTGTGTGGATTAACTGTATCATCCCCC
DNA 2: GGGGGATGATACAGTTAATCCACACACAAAATCCTGACCCCCC
binding result [1]: no binding | binding result [2]: no binding | binding result [3]: no binding

B8: 23 (dsDNA)
DNA 1: GGGGGAATCTCTATCTTACTTCTTGTAAGTGTGGACAAATGCAGGTTCCCCC
DNA 2: GGGGGAACCTGCATTTGTCCACACTTACAAGAAGTAAGATAGAGATTCCCCC
binding result [1]: no binding | binding result [2]: no binding | binding result [3]: no binding

B9: 4c (dsDNA)
DNA 1: GGGGGTAAAATTAACAAACAAGTTACATTATCTAATATACACCCCC
DNA 2: GGGGGTGTATATTAGATAATGTAACTTGTTTGTTAATTTTACCCCC
binding result [1]: no binding | binding result [2]: binds | binding result [3]: binds

B10: 19 (dsDNA)
DNA 1: GGGGGGAAGGAAAATTGTTCCCTGACATTTTTGAACTGGGCCCCC
DNA 2: GGGGGCCCAGTTCAAAAATGTCAGGGAACAATTTTCCTTCCCCCC
binding result [1]: no binding | binding result [2]: no binding | binding result [3]: no binding

B11: 22 (dsDNA)
DNA 1: GGGGGTACATACAGCAAAATAATCTTTGTAGGGGGGACCCCC
DNA 2: GGGGGTCCCCCCTACAAAGATTATTTTGCTGTATGTACCCCC
binding result [1]: no binding | binding result [2]: no binding | binding result [3]: no binding

B12: 16b (dsDNA)
DNA 1: GGGGGGTAGCTTCACAAAGTGATTAACACATGGATACCCCC
DNA 2: GGGGGTATCCATGTGTTAATCACTTTGTGAAGCTACCCCCC
binding result [1]: no binding | binding result [2]: binds | binding result [3]: binds

B13: 25 (dsDNA)
DNA 1: GGGGGCAGATAACTTTGTCCTTTTTGATTTTGAGTGAAGACCCCC
DNA 2: GGGGGTCTTCACTCAAAATCAAAAAGGACAAAGTTATCTGCCCCC
binding result [1]: no binding | binding result [2]: no binding | binding result [3]: no binding

B14: 17 (dsDNA)
DNA 1: GGGGGTTTAAAGATTTGTTTCTTTATTATATGTAAGTACCCCC
DNA 2: GGGGGTACTTACATATAATAAAGAAACAAATCTTTAAACCCCC
binding result [1]: no binding | binding result [2]: binds | binding result [3]: binds

B15: 7 (dsDNA)
DNA 1: GGGGGCAACCACCTCTAAATGCCTACAAATTGTATGGTCATCCCCC
DNA 2: GGGGGATGACCATACAATTTGTAGGCATTTAGAGGTGGTTGCCCCC
binding result [1]: no binding | binding result [2]: no binding | binding result [3]: no binding

B16: 24 (dsDNA)
DNA 1: GGGGGCTTGTATCTTTGTATGTTCACAGAAAGCAAAGTAGCGTGGCCCCC
DNA 2: GGGGGCCACGCTACTTTGCTTTCTGTGAACATACAAAGATACAAGCCCCC
binding result [1]: no binding | binding result [2]: no binding | binding result [3]: no binding

B17: 8 (dsDNA)
DNA 1: GGGGGGCTGTAACAGAATACCTGACAAAAGCAACTTCCCCC
DNA 2: GGGGGAAGTTGCTTTTGTCAGGTATTCTGTTACAGCCCCCC
binding result [1]: no binding | binding result [2]: no binding | binding result [3]: no binding

B18: 26 (dsDNA)
DNA 1: GGGGGGTGGAGGCTTTGTGTAATCAGTCTGTGTACCCCC
DNA 2: GGGGGTACACAGACTGATTACACAAAGCCTCCACCCCCC
binding result [1]: no binding | binding result [2]: binds | binding result [3]: binds

B19: 4b (dsDNA)
DNA 1: GGGGGAGTCTCTGTAAAATTAACAAACAAGTTACCCCCC
DNA 2: GGGGGGTAACTTGTTTGTTAATTTTACAGAGACTCCCCC
binding result [1]: no binding | binding result [2]: binds | binding result [3]: binds

B20: 5 (dsDNA)
DNA 1: GGGGGTGTAGGTCATTGTGGCCTCAAATTTGGTAATGTAACCCCC
DNA 2: GGGGGTTACATTACCAAATTTGAGGCCACAATGACCTACACCCCC
binding result [1]: no binding | binding result [2]: binds | binding result [3]: no binding

B21: 16a (dsDNA)
DNA 1: GGGGGGTGAACCCTTTCAGATTTAGTGACGTAGCTTCACAAAGTGATTAACCCCC
DNA 2: GGGGGTTAATCACTTTGTGAAGCTACGTCACTAAATCTGAAAGGGTTCACCCCCC
binding result [1]: no binding | binding result [2]: binds | binding result [3]: binds

B22: 20 (dsDNA)
DNA 1: GGGGGCTCAGAGCTAGAAATATTTGTGGAATGGGCCCCC
DNA 2: GGGGGCCCATTCCACAAATATTTCTAGCTCTGAGCCCCC
binding result [1]: no binding | binding result [2]: no binding | binding result [3]: no binding

B23: 21 (dsDNA)
DNA 1: GGGGGCAGAATCATTTGTGTTTTCCCATTTTTGCCAGGGGCCCCC
DNA 2: GGGGGCCCCTGGCAAAAATGGGAAAACACAAATGATTCTGCCCCC
binding result [1]: no binding | binding result [2]: no binding | binding result [3]: no binding

B24: 18 (dsDNA)
DNA 1: GGGGGCTTAGAATTAGTAATTTCTTGATATTGTCTGTTAAGCCCCC
DNA 2: GGGGGCTTAACAGACAATATCAAGAAATTACTAATTCTAAGCCCCC
binding result [1]: binds | binding result [2]: no binding | binding result [3]: binds

B25: 4a (dsDNA)
DNA 1: GGGGGGACTTAATTGTGAGTCTCTGTAAAATTAACAAACAAGTTACCCCCC
DNA 2: GGGGGGTAACTTGTTTGTTAATTTTACAGAGACTCACAATTAAGTCCCCCC
binding result [1]: no binding | binding result [2]: binds | binding result [3]: binds
